Assay results taken from article PMC6973309.
Like-named read-outs stand apart in the source and are kept apart here.

How the values were obtained:
human CX3CR1 (human) [1] = molecular target: human CX3CR1 (human) (UniProt P49238)
human CX3CR1 (human) [2] = molecular target: human CX3CR1 (human) (UniProt P49238); assay: flow cytometry on cells
human CX3CR1 (human) [3] = molecular target: human CX3CR1 (human) (UniProt P49238); assay: flow cytometry on cells; remark: listed apart in the source

Chain of human CX3CR1 (human) (P49238 whole entry): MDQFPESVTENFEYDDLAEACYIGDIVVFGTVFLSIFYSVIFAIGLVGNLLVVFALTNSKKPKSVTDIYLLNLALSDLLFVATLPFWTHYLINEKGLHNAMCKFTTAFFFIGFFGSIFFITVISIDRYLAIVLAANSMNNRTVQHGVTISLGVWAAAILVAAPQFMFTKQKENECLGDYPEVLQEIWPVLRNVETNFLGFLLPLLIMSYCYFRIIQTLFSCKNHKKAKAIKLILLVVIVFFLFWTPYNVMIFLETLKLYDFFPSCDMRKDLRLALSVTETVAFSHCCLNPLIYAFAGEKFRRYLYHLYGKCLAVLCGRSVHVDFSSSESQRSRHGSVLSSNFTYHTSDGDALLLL

Row | Chemotaxis IC50 (blocks m3 with m1) (human CX3CR1 (human) [1]) | Ligand Internalization IC50 (blocks m3 with m1) (human CX3CR1 (human) [1]) | IC50 (human CX3CR1 (human) [2]) | IC50 (human CX3CR1 (human) [3]) | Substance
1 | 2.7 nM | 0.33 nM | 1.6 nM | 0.4 nM | BI 655088 (VHH)
2 | 3 nM | 0.37 nM | – | 0.7 nM | BI 655089 (Fc fusion)
